Source: patent publication US20110243941A1

Molecular target: wild type CH1-CH3 Fc fusion protein displayed on yeast (pYD-CH1) (human)
Assay: FACS titration 1.4 to 0.0006 µM on yeast-displayed Fc, MFI, nonlinear regression

Work on “soluble FcγRIIIA tetrameric complex (biotinylated FcγRIIIA-AVITAG on streptavidin-phycoerythrin) (from UniProt P08637 17-203) (receptor)” yielded a Kd of 6 nM.
